Source: patent US20240270846A1 (published 2024)

B1: CE115HA000 W33H one-arm antibody (antibody, human IgG1, kappa, L234A L235A, N297A, name in Kabat numbering)
heavy: QVQLVESGGGVVQPGRSLRLSCAASGFTFSNAHMHWVRQAPGKGLEWVAQIKAKSNNYATYYAESVKGRFTISRDDSKNSLYLQMNSLKTEDTAVYYCRYVHYGAYYGVDAWGQGTTVTVSSASTKGPSVFPLAPSSKSTSGGTAALGCLVKDYFPEPVTVSWNSGALTSGVHTFPAVLQSSGLYSLSSVVTVPSSSLGTQTYICNVNHKPSNTKVDKKVEPKSCDKTHTCPPCPAPEAAGGPSVFLFPPKPKDTLMISRTPEVTCVVVDVSHEDPEVKFNWYVDGVEVHNAKTKPREEQYASTYRVVSVLTVLHQDWLNGKEYKCKVSNKALPAPIEKTISKAKGQPREPQVYTLPPSRCELTKNQVSLSCAVKGFYPSDIAVEWESNGQPENNYKTTPPVLDSDGSFFLVSKLTVDKSRWQQGNVFSCSVMHEALHNHYTQKSLSLSPDYKDDDDK
chain: EPKSSDKTHTCPPCPAPELLGGPSVFLFPPKPKDTLMISRTPEVTCVVVDVSHEDPEVKFNWYVDGVEVHNAKTKPREEQYNSTYRVVSVLTVLHQDWLNGKEYKCKVSNKALPAPIEKTISKAKGQPREPQVCTLPPSRDELTKNQVSLWCLVKGFYPSDIAVEWESNGQPENNYKTTPPVLDSDGSFFLYSKLTVDKSRWQQGNVFSCSVMHEALHNRYTQKSLSLSP
light: DIVMTQSPLSLPVTPGEPASISCRSSQSLVHSNRNTYLHWYQQKPGQAPRLLIYKVSNRFSGVPDRFSGSGSGTDFTLKISRVEAEDVGVYYCGQGTQVPYTFGQGTKLEIKRTVAAPSVFIFPPSDEQLKSGTASVVCLLNNFYPREAKVQWKVDNALQSGNSQESVTEQDSKDSTYSLSSTLTLSKADYEKHKVYACEVTHQGLSSPVTKSFNRGEC
notes: one-arm antibody
B2: CE115HA000 W33L one-arm antibody (antibody, human IgG1, kappa, L234A L235A, N297A, name in Kabat numbering)
heavy: QVQLVESGGGVVQPGRSLRLSCAASGFTFSNALMHWVRQAPGKGLEWVAQIKAKSNNYATYYAESVKGRFTISRDDSKNSLYLQMNSLKTEDTAVYYCRYVHYGAYYGVDAWGQGTTVTVSSASTKGPSVFPLAPSSKSTSGGTAALGCLVKDYFPEPVTVSWNSGALTSGVHTFPAVLQSSGLYSLSSVVTVPSSSLGTQTYICNVNHKPSNTKVDKKVEPKSCDKTHTCPPCPAPEAAGGPSVFLFPPKPKDTLMISRTPEVTCVVVDVSHEDPEVKFNWYVDGVEVHNAKTKPREEQYASTYRVVSVLTVLHQDWLNGKEYKCKVSNKALPAPIEKTISKAKGQPREPQVYTLPPSRCELTKNQVSLSCAVKGFYPSDIAVEWESNGQPENNYKTTPPVLDSDGSFFLVSKLTVDKSRWQQGNVFSCSVMHEALHNHYTQKSLSLSPDYKDDDDK
chain: EPKSSDKTHTCPPCPAPELLGGPSVFLFPPKPKDTLMISRTPEVTCVVVDVSHEDPEVKFNWYVDGVEVHNAKTKPREEQYNSTYRVVSVLTVLHQDWLNGKEYKCKVSNKALPAPIEKTISKAKGQPREPQVCTLPPSRDELTKNQVSLWCLVKGFYPSDIAVEWESNGQPENNYKTTPPVLDSDGSFFLYSKLTVDKSRWQQGNVFSCSVMHEALHNRYTQKSLSLSP
light: DIVMTQSPLSLPVTPGEPASISCRSSQSLVHSNRNTYLHWYQQKPGQAPRLLIYKVSNRFSGVPDRFSGSGSGTDFTLKISRVEAEDVGVYYCGQGTQVPYTFGQGTKLEIKRTVAAPSVFIFPPSDEQLKSGTASVVCLLNNFYPREAKVQWKVDNALQSGNSQESVTEQDSKDSTYSLSSTLTLSKADYEKHKVYACEVTHQGLSSPVTKSFNRGEC
notes: one-arm antibody
B3: CE115HA000 Y58A one-arm antibody (antibody, human IgG1, kappa, L234A L235A, N297A, name in Kabat numbering)
heavy: QVQLVESGGGVVQPGRSLRLSCAASGFTFSNAWMHWVRQAPGKGLEWVAQIKAKSNNYATAYAESVKGRFTISRDDSKNSLYLQMNSLKTEDTAVYYCRYVHYGAYYGVDAWGQGTTVTVSSASTKGPSVFPLAPSSKSTSGGTAALGCLVKDYFPEPVTVSWNSGALTSGVHTFPAVLQSSGLYSLSSVVTVPSSSLGTQTYICNVNHKPSNTKVDKKVEPKSCDKTHTCPPCPAPEAAGGPSVFLFPPKPKDTLMISRTPEVTCVVVDVSHEDPEVKFNWYVDGVEVHNAKTKPREEQYASTYRVVSVLTVLHQDWLNGKEYKCKVSNKALPAPIEKTISKAKGQPREPQVYTLPPSRCELTKNQVSLSCAVKGFYPSDIAVEWESNGQPENNYKTTPPVLDSDGSFFLVSKLTVDKSRWQQGNVFSCSVMHEALHNHYTQKSLSLSPDYKDDDDK
chain: EPKSSDKTHTCPPCPAPELLGGPSVFLFPPKPKDTLMISRTPEVTCVVVDVSHEDPEVKFNWYVDGVEVHNAKTKPREEQYNSTYRVVSVLTVLHQDWLNGKEYKCKVSNKALPAPIEKTISKAKGQPREPQVCTLPPSRDELTKNQVSLWCLVKGFYPSDIAVEWESNGQPENNYKTTPPVLDSDGSFFLYSKLTVDKSRWQQGNVFSCSVMHEALHNRYTQKSLSLSP
light: DIVMTQSPLSLPVTPGEPASISCRSSQSLVHSNRNTYLHWYQQKPGQAPRLLIYKVSNRFSGVPDRFSGSGSGTDFTLKISRVEAEDVGVYYCGQGTQVPYTFGQGTKLEIKRTVAAPSVFIFPPSDEQLKSGTASVVCLLNNFYPREAKVQWKVDNALQSGNSQESVTEQDSKDSTYSLSSTLTLSKADYEKHKVYACEVTHQGLSSPVTKSFNRGEC
notes: one-arm antibody
B4: CE115HA000 Y55G one-arm antibody (antibody, human IgG1, kappa, L234A L235A, N297A, name in Kabat numbering)
heavy: QVQLVESGGGVVQPGRSLRLSCAASGFTFSNAWMHWVRQAPGKGLEWVAQIKAKSNNGATYYAESVKGRFTISRDDSKNSLYLQMNSLKTEDTAVYYCRYVHYGAYYGVDAWGQGTTVTVSSASTKGPSVFPLAPSSKSTSGGTAALGCLVKDYFPEPVTVSWNSGALTSGVHTFPAVLQSSGLYSLSSVVTVPSSSLGTQTYICNVNHKPSNTKVDKKVEPKSCDKTHTCPPCPAPEAAGGPSVFLFPPKPKDTLMISRTPEVTCVVVDVSHEDPEVKFNWYVDGVEVHNAKTKPREEQYASTYRVVSVLTVLHQDWLNGKEYKCKVSNKALPAPIEKTISKAKGQPREPQVYTLPPSRCELTKNQVSLSCAVKGFYPSDIAVEWESNGQPENNYKTTPPVLDSDGSFFLVSKLTVDKSRWQQGNVFSCSVMHEALHNHYTQKSLSLSPDYKDDDDK
chain: EPKSSDKTHTCPPCPAPELLGGPSVFLFPPKPKDTLMISRTPEVTCVVVDVSHEDPEVKFNWYVDGVEVHNAKTKPREEQYNSTYRVVSVLTVLHQDWLNGKEYKCKVSNKALPAPIEKTISKAKGQPREPQVCTLPPSRDELTKNQVSLWCLVKGFYPSDIAVEWESNGQPENNYKTTPPVLDSDGSFFLYSKLTVDKSRWQQGNVFSCSVMHEALHNRYTQKSLSLSP
light: DIVMTQSPLSLPVTPGEPASISCRSSQSLVHSNRNTYLHWYQQKPGQAPRLLIYKVSNRFSGVPDRFSGSGSGTDFTLKISRVEAEDVGVYYCGQGTQVPYTFGQGTKLEIKRTVAAPSVFIFPPSDEQLKSGTASVVCLLNNFYPREAKVQWKVDNALQSGNSQESVTEQDSKDSTYSLSSTLTLSKADYEKHKVYACEVTHQGLSSPVTKSFNRGEC
notes: one-arm antibody
B5: CE115HA000 W33Y one-arm antibody (antibody, human IgG1, kappa, L234A L235A, N297A, name in Kabat numbering)
heavy: QVQLVESGGGVVQPGRSLRLSCAASGFTFSNAYMHWVRQAPGKGLEWVAQIKAKSNNYATYYAESVKGRFTISRDDSKNSLYLQMNSLKTEDTAVYYCRYVHYGAYYGVDAWGQGTTVTVSSASTKGPSVFPLAPSSKSTSGGTAALGCLVKDYFPEPVTVSWNSGALTSGVHTFPAVLQSSGLYSLSSVVTVPSSSLGTQTYICNVNHKPSNTKVDKKVEPKSCDKTHTCPPCPAPEAAGGPSVFLFPPKPKDTLMISRTPEVTCVVVDVSHEDPEVKFNWYVDGVEVHNAKTKPREEQYASTYRVVSVLTVLHQDWLNGKEYKCKVSNKALPAPIEKTISKAKGQPREPQVYTLPPSRCELTKNQVSLSCAVKGFYPSDIAVEWESNGQPENNYKTTPPVLDSDGSFFLVSKLTVDKSRWQQGNVFSCSVMHEALHNHYTQKSLSLSPDYKDDDDK
chain: EPKSSDKTHTCPPCPAPELLGGPSVFLFPPKPKDTLMISRTPEVTCVVVDVSHEDPEVKFNWYVDGVEVHNAKTKPREEQYNSTYRVVSVLTVLHQDWLNGKEYKCKVSNKALPAPIEKTISKAKGQPREPQVCTLPPSRDELTKNQVSLWCLVKGFYPSDIAVEWESNGQPENNYKTTPPVLDSDGSFFLYSKLTVDKSRWQQGNVFSCSVMHEALHNRYTQKSLSLSP
light: DIVMTQSPLSLPVTPGEPASISCRSSQSLVHSNRNTYLHWYQQKPGQAPRLLIYKVSNRFSGVPDRFSGSGSGTDFTLKISRVEAEDVGVYYCGQGTQVPYTFGQGTKLEIKRTVAAPSVFIFPPSDEQLKSGTASVVCLLNNFYPREAKVQWKVDNALQSGNSQESVTEQDSKDSTYSLSSTLTLSKADYEKHKVYACEVTHQGLSSPVTKSFNRGEC
notes: one-arm antibody
B6: CE115HA000 Y55D one-arm antibody (antibody, human IgG1, kappa, L234A L235A, N297A, name in Kabat numbering)
heavy: QVQLVESGGGVVQPGRSLRLSCAASGFTFSNAWMHWVRQAPGKGLEWVAQIKAKSNNDATYYAESVKGRFTISRDDSKNSLYLQMNSLKTEDTAVYYCRYVHYGAYYGVDAWGQGTTVTVSSASTKGPSVFPLAPSSKSTSGGTAALGCLVKDYFPEPVTVSWNSGALTSGVHTFPAVLQSSGLYSLSSVVTVPSSSLGTQTYICNVNHKPSNTKVDKKVEPKSCDKTHTCPPCPAPEAAGGPSVFLFPPKPKDTLMISRTPEVTCVVVDVSHEDPEVKFNWYVDGVEVHNAKTKPREEQYASTYRVVSVLTVLHQDWLNGKEYKCKVSNKALPAPIEKTISKAKGQPREPQVYTLPPSRCELTKNQVSLSCAVKGFYPSDIAVEWESNGQPENNYKTTPPVLDSDGSFFLVSKLTVDKSRWQQGNVFSCSVMHEALHNHYTQKSLSLSPDYKDDDDK
chain: EPKSSDKTHTCPPCPAPELLGGPSVFLFPPKPKDTLMISRTPEVTCVVVDVSHEDPEVKFNWYVDGVEVHNAKTKPREEQYNSTYRVVSVLTVLHQDWLNGKEYKCKVSNKALPAPIEKTISKAKGQPREPQVCTLPPSRDELTKNQVSLWCLVKGFYPSDIAVEWESNGQPENNYKTTPPVLDSDGSFFLYSKLTVDKSRWQQGNVFSCSVMHEALHNRYTQKSLSLSP
light: DIVMTQSPLSLPVTPGEPASISCRSSQSLVHSNRNTYLHWYQQKPGQAPRLLIYKVSNRFSGVPDRFSGSGSGTDFTLKISRVEAEDVGVYYCGQGTQVPYTFGQGTKLEIKRTVAAPSVFIFPPSDEQLKSGTASVVCLLNNFYPREAKVQWKVDNALQSGNSQESVTEQDSKDSTYSLSSTLTLSKADYEKHKVYACEVTHQGLSSPVTKSFNRGEC
notes: one-arm antibody

Target: T1, CD3 epsilon homodimer protein (UniProt P07766 23-126)
T1 construct: also called CD3 (CD3 epsilon)
T1 sequence (P07766 23-126): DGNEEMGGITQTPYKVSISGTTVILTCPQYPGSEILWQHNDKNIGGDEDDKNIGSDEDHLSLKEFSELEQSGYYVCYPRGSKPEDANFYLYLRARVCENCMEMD
Assay: SPR Biacore T200, antibody over immobilised CD3e homodimer;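 also: CD3 epsilon homodimer amine-coupled on a CM4 chip, run at 25 °C in HBS-EP+, Z = bound amount of each single-residue H chain variant over that of the parent antibody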
Experimental: An appropriate amount of CD3 epsilon homodimer protein was immobilized onto Sensor chip CM4 (GE Healthcare Japan Corp.) by the amine coupling method. Then, the antibody having an appropriate concentration was injected thereto as an analyte and allowed to interact with the CD3 epsilon homodimer protein on the sensor chip. Then, the sensor chip was regenerated by the injection of 10 mmol/L glycine-HCl (pH 1.5). The assay was conducted at 25 degrees C., and HBS-EP+(GE Healthcare Japan Corp.) was used as a running buffer. […] Each parameter was calculated using Biacore T200 Evaluation Software (GE Healthcare Japan Corp.).
Specifically, when the amount of the antibody comprising CE115HA000 bound was defined as X and the amount of the H chain one-amino acid altered form bound was defined as Y, a value of Z (ratio of amounts bound)=Y/X was used.

Binder	ratio of amounts bound (Z=Y/X vs CE115HA000)
B1	0.13
B2	0.1
B3	0.22
B4	0.55
B5	0.66
B6	0.45
